According to article PMC2937010:

Target: RMI1 OB2 domain (C-terminal OB fold of RMI1, residues 473-625) (human) (UniProt Q9H9A7)
Test: SEC

stoichiometry N: 1
Substance: RMI2 (RMI core complex, wild type) (natural protein)
